# Results published in US10363306B2, “Cytokines and neuroantigens for treatment of immune disorders” (East Carolina University, priority 2009, dated 2019).
# Ends that are not written are not given here.
# What was measured:
# Solubility of peptide = format: physicochemical; conditions: routinely reconstituted in saline
# Experimental: A colony of Lewis rats was maintained at East Carolina University School of Medicine. Animal care and use was approved by the Institutional Animal Care and Use Committee and was performed in accordance with approved institutional guidelines. The synthetic peptide gp69-88 ([…]) (SEQ ID NO. 5) was obtained from Quality Controlled Biologicals, Inc. (Hopkinton, Mass.). The purity of gp69-88 was greater than 98%. […] The OX6 anti-I-A (RT1B) IgG1, the R73 anti-TCRβ IgG1, the OX81 anti-IL-4 IgG1, and the OX18 anti-MHC class I glycoproteins (MHC-I) (RT1A) IgG1 were concentrated by ultrafiltration of B cell hybridoma supernatants through Millipore spiral wound membranes (100 kd exclusion). Hybridomas were obtained from the European Collection of Cell Cultures. The B5 IgM anti-MHC-I (RT1A^a,b,l) mAb was purchased from BD Biosciences. FITC-conjugated goat anti-mouse IgG1 was purchased from Southern Biotechnology (Birmingham, Ala.).
# BN-GP T cells = test: IFNβ anti-proliferative activity in IL-2 stimulated cultures of BN-GP T cells; format: cell-based, rat; conditions: expression supernatants, transient transfection of HEK293 cells
# Experimental: FIG. 1. The IFNβ-NAg his-tagged fusion protein was biologically active and was purified on nickel resins. (A) To assess whether IFNβ-NAg induced class I MHC expression, thymocytes (5×10^6/ml in complete RPMI) were cultured with or without IFNβ-NAg for 2 days and then were stained with B5 (anti-MHC-I), OX18 (anti-MHC-I), R73 (anti-TCRβ), or OX81 (anti-IL4; isotype control) and were analyzed by flow cytometry. (B) To assess IFNβ-mediated anti-proliferative activity, supernatants from two independently derived IFNβ-NAg expression systems as well as supernatants from several control expression systems were added at designated titrations (x-axis) to IL-2 stimulated cultures of BN-GP T cells. (C) To assess the specificity of anti-proliferative activity, baculovirus supernatants containing IFNβ-NAg were added at designated titrations to cultures of rat (R1T, BN-GP, RsL.11T, RsL.11, or Conal.8D9) or mouse (CTLL) T cells. Proliferative assays (B & C) were pulsed with [^3H]thymidine on the second day of a 3-day culture. (D) Shown is a representative SDS-PAGE analysis of purified IFNβ-NAg.
# FIG. 2. Structure-function analysis of the cytokine and NAg domains of IFNβ fusion proteins. (A) Expression supernatants containing designated IFNβ fusion proteins (see Table 2) were added to cultures of BN-GP T cells at designated titrations (x-axis). (B) The IFNβ-EK-NAg-6his or IFNβ-EK-6his fusion genes were inserted into the pCEP4 expression vector (Invitrogen). Inserts were verified by DNA sequencing, and the genes were expressed by transient transfection of HEK293 cells. Independently derived expression systems of IFNβ-EK-NAg-6his or IFNβ-EK-6his (3 each) were compared in the BN-GP T cell anti-proliferative assay. (C) Independently purified preparations (2 each) of each IFN-β fusion protein (IFNβ-NAg from HEK293 cells, IFNβ-NAg from baculovirus, and IFN-β from HEK293 cells) were added at designated concentrations to assess anti-proliferative activity. Two independently purified preparations of the same fusion protein were tested to verify the reliability of activity for each type of protein. The x-axis was based on the exponent of the molar concentration. For example, a concentration of 100 nM was represented as Log [10^−7]=Log10) (10^−7M)=−7 and was plotted by the exponent of −7. For these experiments (A-C), BN-GP T cells were cultured in IL-2. (D) The MBP-specific RsL.11 T cell clone and irradiated splenic APC were cultured with designated concentrations of purified IFNβ-NAg or GPMBP in the presence or absence of the OX6 anti-MHC-II mAb. (E) Five preparations of purified IFNβ-NAg and six preparations of purified IFN-β were tested for antigenic activity in cultures of RsL.11 T cells and irradiated splenic APC.
# The RsL.11 MBP-specific clone was a stable, IL-2 dependent line derived from Lewis rats sensitized with rat MBP in CFA (Mannie, M. D., and M. S. Norris. 2001. MHC class-II-restricted antigen presentation by myelin basic protein-specific CD4+ T cells causes prolonged desensitization and outgrowth of CD4-responders. Cell Immunol 212:51-62). The RsL.11T clone was a transformed variant of the RsL.11 clone. […]
solubility (Solubility of peptide),Molecule,Biological activity of IFNβ in expression supernatants (BN-GP T cells)
freely soluble,YGSLPQKSQRSQDENPVVHF [NAg],
,"ss-IFNβ-6his: Rat IFNβ with 6-histidine sequence, lacking the EK linker (protein, UniProt P70499 22-184, looked up, C-terminal 6His tag) Interferon beta: IDYKQLQFRQSTSIRTCQKLLRQLNGRLNLSYRTDFKIPMEVMHPSQMEKSYTAFAIQVMLQNVFLVFRSNFSSTGWNETIVESLLDELHQQTELLEIILKEKQEERLTWVTSTTTLGLKSYYWRVQRYLKDKKYNSYAWMVVRAEVFRNFSIILRLNRNFQN",Weak activity
,"ss-IFNβ: Rat IFNβ without non-native C-terminal or N-terminal additions (protein, UniProt P70499 22-184, looked up) Interferon beta: IDYKQLQFRQSTSIRTCQKLLRQLNGRLNLSYRTDFKIPMEVMHPSQMEKSYTAFAIQVMLQNVFLVFRSNFSSTGWNETIVESLLDELHQQTELLEIILKEKQEERLTWVTSTTTLGLKSYYWRVQRYLKDKKYNSYAWMVVRAEVFRNFSIILRLNRNFQN",Potent activity
